Measurements as given in article PMC7069974, “Single molecule analysis reveals monomeric XPA bends DNA and undergoes episodic linear diffusion during damage search”.
Positions count from the first letter of the chain named.

B1: ND37 (dsDNA)
DNA 1: CCGAGTCATTCCTGCAGCGAGTCCATGGGAGTCAAAT
DNA 2: ATTTGACTCCCATGGACTCGCTGCAGGAATGACTCGG
modifications: 5'-phosphate top strand
B2: CPD37 (dsDNA)
DNA 1: B1 DNA 1 with G21T
DNA 2: B1 DNA 2 with C17A
modifications: CPD T<>T at T21-T22 of top strand; 5'-phosphate top strand
B3: AAF37 (dsDNA)
DNA 1: B1 DNA 1
DNA 2: B1 DNA 2
modifications: dG-C8-AAF at G14 of top strand; 5'-phosphate top strand

Key:
Test in all cases: EMSA; EMSA: 8 nM DNA, 20 mM HEPES pH 7.5, 150 mM NaCl, 5 mM DTT, 0.5 mg/ml BSA, 5% glycerol, 25 min at room temperature; gel 5% native, 0.5x TBE, 4 C. AFM: 100 nM DNA, 1-4 uM XPA (ND538)
Conditions in all cases: protein: recombinant, tags: N-terminal His, label: 5'-6FAM on bottom strand, blunt
[1] = target: T1, His-flXPA-StrepII (human, UniProt P23025 1-273)
[2] = target: His-truncXPA-StrepII (human, UniProt P23025 98-239)
[3] = target: T1, His-flXPA-StrepII; remark: listed apart in the source

T1 sequence (P23025 whole entry): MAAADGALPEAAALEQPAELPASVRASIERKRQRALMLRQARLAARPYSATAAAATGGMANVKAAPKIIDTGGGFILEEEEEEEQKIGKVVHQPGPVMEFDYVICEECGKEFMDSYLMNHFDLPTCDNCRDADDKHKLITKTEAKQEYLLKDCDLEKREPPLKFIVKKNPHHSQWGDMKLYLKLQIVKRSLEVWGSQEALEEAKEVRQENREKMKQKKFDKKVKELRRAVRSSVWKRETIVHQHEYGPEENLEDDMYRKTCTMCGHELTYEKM
His-truncXPA-StrepII, sequence (P23025 98-239): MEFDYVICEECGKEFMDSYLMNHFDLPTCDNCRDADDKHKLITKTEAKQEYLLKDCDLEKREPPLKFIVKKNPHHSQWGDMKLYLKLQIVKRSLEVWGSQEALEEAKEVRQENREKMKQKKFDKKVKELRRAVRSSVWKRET

| Binder | Kd [1] | Kd [2] | binding signal [3] |
| --- | --- | --- | --- |
| B1 | 253 ± 14 nM | 269 ± 22 nM | – |
| B2 | – | 269 ± 24 nM | ~44 fold specificity for CPD over non-damaged DNA (Kd ratio x 37 sites) |
| B3 | 109 ± 5 nM | 189 ± 9 nM | – |
